From PMC11494503 (2024) come the findings set out here.

The assay concerns the target T1, cyclo-CLLFCL (head-to-tail cyclic peptide).
T1 chain: CLLFCL
The assay is described as follows: microscale thermophoresis. Background: Microscale thermophoresis detects binding through changes in fluorescence in a small temperature gradient.

B1: HIF-1α PAS-B (protein)
chain: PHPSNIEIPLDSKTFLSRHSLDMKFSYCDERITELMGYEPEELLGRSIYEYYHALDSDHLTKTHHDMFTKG
For the molecule B1, the affinity, expressed as Kd, was 470 nM.
